Source: patent publication US20260167699A1 (Chugai, published 2026)

Target: T1, FcγRIIIa (human, UniProt P08637 17-208)
T1 construct: extracellular domain; also called 3a; FcγRIIIa extracellular domain
Assay: SPR (Biacore);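 further: antibody variants captured on an SPR sensor chip, with FcγRIIIa passed over as analyte in HBS-EP+ buffer at 25 °C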

T1 sequence (P08637 other isoform, or with tags, fused parts or gaps): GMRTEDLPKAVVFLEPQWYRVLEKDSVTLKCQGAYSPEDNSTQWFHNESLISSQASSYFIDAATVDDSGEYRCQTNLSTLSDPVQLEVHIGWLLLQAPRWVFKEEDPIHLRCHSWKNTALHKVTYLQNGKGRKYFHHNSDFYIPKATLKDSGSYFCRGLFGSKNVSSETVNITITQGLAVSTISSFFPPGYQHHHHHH

Row | He/Con 3a | Binder
1 | 77.8 % of GpH7-A5/GpH7-B3/GpL16-k0 | GpH7-A5/GpH7-B3 variant P271_20W/GpL16-k0 (antibody, human IgG1, kappa, copies: 1 + 1 + 2) heavy 1: not shown heavy 2: not shown light: DIVMTQSPLSLPVTPGEPASISCQASESLVHSNRNTYLHWYLQKPGQSPQLLIYKVSNRFSGVPDRFSGSGSGTDFTLKISRVEAEDVGVYYCSQNTHVPPTFGQGTKVEIERTVAAPSVFIFPPSDEQLKSGTASVVCLLNNFYPREAKVQWKVDNALQSGNSQESVTEQDSKDSTYSLSSTLTLSKADYEKHKVYACEVTHQGLSSPVTKSFNRGEC
2 | 76.6 % of GpH7-A5/GpH7-B3/GpL16-k0 | GpH7-A5/GpH7-B3 variant Q295_01G/GpL16-k0 (antibody, human IgG1, kappa, copies: 1 + 1 + 2) heavy 1: not shown heavy 2: not shown light: DIVMTQSPLSLPVTPGEPASISCQASESLVHSNRNTYLHWYLQKPGQSPQLLIYKVSNRFSGVPDRFSGSGSGTDFTLKISRVEAEDVGVYYCSQNTHVPPTFGQGTKVEIERTVAAPSVFIFPPSDEQLKSGTASVVCLLNNFYPREAKVQWKVDNALQSGNSQESVTEQDSKDSTYSLSSTLTLSKADYEKHKVYACEVTHQGLSSPVTKSFNRGEC
3 | 67.1 % of GpH7-A5/GpH7-B3/GpL16-k0 | GpH7-A5/GpH7-B3 variant P331_18N/GpL16-k0 (antibody, human IgG1, kappa, copies: 1 + 1 + 2) heavy 1: not shown heavy 2: not shown light: DIVMTQSPLSLPVTPGEPASISCQASESLVHSNRNTYLHWYLQKPGQSPQLLIYKVSNRFSGVPDRFSGSGSGTDFTLKISRVEAEDVGVYYCSQNTHVPPTFGQGTKVEIERTVAAPSVFIFPPSDEQLKSGTASVVCLLNNFYPREAKVQWKVDNALQSGNSQESVTEQDSKDSTYSLSSTLTLSKADYEKHKVYACEVTHQGLSSPVTKSFNRGEC
4 | 55.2 % of GpH7-A5/GpH7-B3/GpL16-k0 | GpH7-A5/GpH7-B3 variant P329_02A/GpL16-k0 (antibody, human IgG1, kappa, copies: 1 + 1 + 2) heavy 1: not shown heavy 2: not shown light: DIVMTQSPLSLPVTPGEPASISCQASESLVHSNRNTYLHWYLQKPGQSPQLLIYKVSNRFSGVPDRFSGSGSGTDFTLKISRVEAEDVGVYYCSQNTHVPPTFGQGTKVEIERTVAAPSVFIFPPSDEQLKSGTASVVCLLNNFYPREAKVQWKVDNALQSGNSQESVTEQDSKDSTYSLSSTLTLSKADYEKHKVYACEVTHQGLSSPVTKSFNRGEC
5 | 74.9 % of GpH7-A5/GpH7-B3/GpL16-k0 | GpH7-A5/GpH7-B3 variant P331_15Y/GpL16-k0 (antibody, human IgG1, kappa, copies: 1 + 1 + 2) heavy 1: not shown heavy 2: not shown light: DIVMTQSPLSLPVTPGEPASISCQASESLVHSNRNTYLHWYLQKPGQSPQLLIYKVSNRFSGVPDRFSGSGSGTDFTLKISRVEAEDVGVYYCSQNTHVPPTFGQGTKVEIERTVAAPSVFIFPPSDEQLKSGTASVVCLLNNFYPREAKVQWKVDNALQSGNSQESVTEQDSKDSTYSLSSTLTLSKADYEKHKVYACEVTHQGLSSPVTKSFNRGEC
6 | 71.9 % of GpH7-A5/GpH7-B3/GpL16-k0 | GpH7-A5/GpH7-B3 variant P331_20W/GpL16-k0 (antibody, human IgG1, kappa, copies: 1 + 1 + 2) heavy 1: not shown heavy 2: not shown light: DIVMTQSPLSLPVTPGEPASISCQASESLVHSNRNTYLHWYLQKPGQSPQLLIYKVSNRFSGVPDRFSGSGSGTDFTLKISRVEAEDVGVYYCSQNTHVPPTFGQGTKVEIERTVAAPSVFIFPPSDEQLKSGTASVVCLLNNFYPREAKVQWKVDNALQSGNSQESVTEQDSKDSTYSLSSTLTLSKADYEKHKVYACEVTHQGLSSPVTKSFNRGEC
7 | 80.9 % of GpH7-A5/GpH7-B3/GpL16-k0 | GpH7-A5/GpH7-B3 variant P331_13S/GpL16-k0 (antibody, human IgG1, kappa, copies: 1 + 1 + 2) heavy 1: not shown heavy 2: not shown light: DIVMTQSPLSLPVTPGEPASISCQASESLVHSNRNTYLHWYLQKPGQSPQLLIYKVSNRFSGVPDRFSGSGSGTDFTLKISRVEAEDVGVYYCSQNTHVPPTFGQGTKVEIERTVAAPSVFIFPPSDEQLKSGTASVVCLLNNFYPREAKVQWKVDNALQSGNSQESVTEQDSKDSTYSLSSTLTLSKADYEKHKVYACEVTHQGLSSPVTKSFNRGEC
8 | 52.5 % of GpH7-A5/GpH7-B3/GpL16-k0 | GpH7-A5/GpH7-B3 variant P329_09D/GpL16-k0 (antibody, human IgG1, kappa, copies: 1 + 1 + 2) heavy 1: not shown heavy 2: not shown light: DIVMTQSPLSLPVTPGEPASISCQASESLVHSNRNTYLHWYLQKPGQSPQLLIYKVSNRFSGVPDRFSGSGSGTDFTLKISRVEAEDVGVYYCSQNTHVPPTFGQGTKVEIERTVAAPSVFIFPPSDEQLKSGTASVVCLLNNFYPREAKVQWKVDNALQSGNSQESVTEQDSKDSTYSLSSTLTLSKADYEKHKVYACEVTHQGLSSPVTKSFNRGEC
9 | 70.7 % of GpH7-A5/GpH7-B3/GpL16-k0 | GpH7-A5/GpH7-B3 variant P331_04F/GpL16-k0 (antibody, human IgG1, kappa, copies: 1 + 1 + 2) heavy 1: not shown heavy 2: not shown light: DIVMTQSPLSLPVTPGEPASISCQASESLVHSNRNTYLHWYLQKPGQSPQLLIYKVSNRFSGVPDRFSGSGSGTDFTLKISRVEAEDVGVYYCSQNTHVPPTFGQGTKVEIERTVAAPSVFIFPPSDEQLKSGTASVVCLLNNFYPREAKVQWKVDNALQSGNSQESVTEQDSKDSTYSLSSTLTLSKADYEKHKVYACEVTHQGLSSPVTKSFNRGEC
10 | 82.5 % of GpH7-A5/GpH7-B3/GpL16-k0 | GpH7-A5/GpH7-B3 variant P331_02A/GpL16-k0 (antibody, human IgG1, kappa, copies: 1 + 1 + 2) heavy 1: not shown heavy 2: not shown light: DIVMTQSPLSLPVTPGEPASISCQASESLVHSNRNTYLHWYLQKPGQSPQLLIYKVSNRFSGVPDRFSGSGSGTDFTLKISRVEAEDVGVYYCSQNTHVPPTFGQGTKVEIERTVAAPSVFIFPPSDEQLKSGTASVVCLLNNFYPREAKVQWKVDNALQSGNSQESVTEQDSKDSTYSLSSTLTLSKADYEKHKVYACEVTHQGLSSPVTKSFNRGEC
11 | 71.6 % of GpH7-A5/GpH7-B3/GpL16-k0 | GpH7-A5/GpH7-B3 variant P331_09D/GpL16-k0 (antibody, human IgG1, kappa, copies: 1 + 1 + 2) heavy 1: not shown heavy 2: not shown light: DIVMTQSPLSLPVTPGEPASISCQASESLVHSNRNTYLHWYLQKPGQSPQLLIYKVSNRFSGVPDRFSGSGSGTDFTLKISRVEAEDVGVYYCSQNTHVPPTFGQGTKVEIERTVAAPSVFIFPPSDEQLKSGTASVVCLLNNFYPREAKVQWKVDNALQSGNSQESVTEQDSKDSTYSLSSTLTLSKADYEKHKVYACEVTHQGLSSPVTKSFNRGEC
